Experimental data: the supplement of paper PMC9876800

Tested on: peptide library, one residue held at a place counted from the S/T acceptor
Assay: relative phosphorylation of the sub-library (ratio to the mean residue at this position); higher = residue favoured
Method in brief: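 Each biotinylated degenerate peptide sub-library fixed one residue at one position around a central Ser/Thr and was incubated with a purified recombinant kinase, a human or orthologue construct, in 384-well plates. The 90 min reactions, under kinase-specific conditions, contained 50 μM peptide and 50 μM ATP spiked with γ-32P-ATP. Phosphorylation was read by phosphorimaging spots on streptavidin membranes and quantifying them by densitometry. Relative sub-library phosphorylation expresses each value as a ratio to the mean residue at that position.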

Sequence of BMPR1A, construct: aa187-end, human (P36894 187-532, looked up): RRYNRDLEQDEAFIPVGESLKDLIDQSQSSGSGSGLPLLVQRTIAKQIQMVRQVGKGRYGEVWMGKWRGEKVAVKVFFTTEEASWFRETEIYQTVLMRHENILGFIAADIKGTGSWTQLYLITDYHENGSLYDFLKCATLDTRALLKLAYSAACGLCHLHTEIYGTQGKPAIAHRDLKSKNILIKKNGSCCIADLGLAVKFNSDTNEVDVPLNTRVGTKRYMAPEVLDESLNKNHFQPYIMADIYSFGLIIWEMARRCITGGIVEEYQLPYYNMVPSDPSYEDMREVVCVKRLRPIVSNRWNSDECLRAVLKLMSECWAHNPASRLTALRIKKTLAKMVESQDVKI
Sequence of ATR, construct: Full length, human (Q13535 whole entry, looked up): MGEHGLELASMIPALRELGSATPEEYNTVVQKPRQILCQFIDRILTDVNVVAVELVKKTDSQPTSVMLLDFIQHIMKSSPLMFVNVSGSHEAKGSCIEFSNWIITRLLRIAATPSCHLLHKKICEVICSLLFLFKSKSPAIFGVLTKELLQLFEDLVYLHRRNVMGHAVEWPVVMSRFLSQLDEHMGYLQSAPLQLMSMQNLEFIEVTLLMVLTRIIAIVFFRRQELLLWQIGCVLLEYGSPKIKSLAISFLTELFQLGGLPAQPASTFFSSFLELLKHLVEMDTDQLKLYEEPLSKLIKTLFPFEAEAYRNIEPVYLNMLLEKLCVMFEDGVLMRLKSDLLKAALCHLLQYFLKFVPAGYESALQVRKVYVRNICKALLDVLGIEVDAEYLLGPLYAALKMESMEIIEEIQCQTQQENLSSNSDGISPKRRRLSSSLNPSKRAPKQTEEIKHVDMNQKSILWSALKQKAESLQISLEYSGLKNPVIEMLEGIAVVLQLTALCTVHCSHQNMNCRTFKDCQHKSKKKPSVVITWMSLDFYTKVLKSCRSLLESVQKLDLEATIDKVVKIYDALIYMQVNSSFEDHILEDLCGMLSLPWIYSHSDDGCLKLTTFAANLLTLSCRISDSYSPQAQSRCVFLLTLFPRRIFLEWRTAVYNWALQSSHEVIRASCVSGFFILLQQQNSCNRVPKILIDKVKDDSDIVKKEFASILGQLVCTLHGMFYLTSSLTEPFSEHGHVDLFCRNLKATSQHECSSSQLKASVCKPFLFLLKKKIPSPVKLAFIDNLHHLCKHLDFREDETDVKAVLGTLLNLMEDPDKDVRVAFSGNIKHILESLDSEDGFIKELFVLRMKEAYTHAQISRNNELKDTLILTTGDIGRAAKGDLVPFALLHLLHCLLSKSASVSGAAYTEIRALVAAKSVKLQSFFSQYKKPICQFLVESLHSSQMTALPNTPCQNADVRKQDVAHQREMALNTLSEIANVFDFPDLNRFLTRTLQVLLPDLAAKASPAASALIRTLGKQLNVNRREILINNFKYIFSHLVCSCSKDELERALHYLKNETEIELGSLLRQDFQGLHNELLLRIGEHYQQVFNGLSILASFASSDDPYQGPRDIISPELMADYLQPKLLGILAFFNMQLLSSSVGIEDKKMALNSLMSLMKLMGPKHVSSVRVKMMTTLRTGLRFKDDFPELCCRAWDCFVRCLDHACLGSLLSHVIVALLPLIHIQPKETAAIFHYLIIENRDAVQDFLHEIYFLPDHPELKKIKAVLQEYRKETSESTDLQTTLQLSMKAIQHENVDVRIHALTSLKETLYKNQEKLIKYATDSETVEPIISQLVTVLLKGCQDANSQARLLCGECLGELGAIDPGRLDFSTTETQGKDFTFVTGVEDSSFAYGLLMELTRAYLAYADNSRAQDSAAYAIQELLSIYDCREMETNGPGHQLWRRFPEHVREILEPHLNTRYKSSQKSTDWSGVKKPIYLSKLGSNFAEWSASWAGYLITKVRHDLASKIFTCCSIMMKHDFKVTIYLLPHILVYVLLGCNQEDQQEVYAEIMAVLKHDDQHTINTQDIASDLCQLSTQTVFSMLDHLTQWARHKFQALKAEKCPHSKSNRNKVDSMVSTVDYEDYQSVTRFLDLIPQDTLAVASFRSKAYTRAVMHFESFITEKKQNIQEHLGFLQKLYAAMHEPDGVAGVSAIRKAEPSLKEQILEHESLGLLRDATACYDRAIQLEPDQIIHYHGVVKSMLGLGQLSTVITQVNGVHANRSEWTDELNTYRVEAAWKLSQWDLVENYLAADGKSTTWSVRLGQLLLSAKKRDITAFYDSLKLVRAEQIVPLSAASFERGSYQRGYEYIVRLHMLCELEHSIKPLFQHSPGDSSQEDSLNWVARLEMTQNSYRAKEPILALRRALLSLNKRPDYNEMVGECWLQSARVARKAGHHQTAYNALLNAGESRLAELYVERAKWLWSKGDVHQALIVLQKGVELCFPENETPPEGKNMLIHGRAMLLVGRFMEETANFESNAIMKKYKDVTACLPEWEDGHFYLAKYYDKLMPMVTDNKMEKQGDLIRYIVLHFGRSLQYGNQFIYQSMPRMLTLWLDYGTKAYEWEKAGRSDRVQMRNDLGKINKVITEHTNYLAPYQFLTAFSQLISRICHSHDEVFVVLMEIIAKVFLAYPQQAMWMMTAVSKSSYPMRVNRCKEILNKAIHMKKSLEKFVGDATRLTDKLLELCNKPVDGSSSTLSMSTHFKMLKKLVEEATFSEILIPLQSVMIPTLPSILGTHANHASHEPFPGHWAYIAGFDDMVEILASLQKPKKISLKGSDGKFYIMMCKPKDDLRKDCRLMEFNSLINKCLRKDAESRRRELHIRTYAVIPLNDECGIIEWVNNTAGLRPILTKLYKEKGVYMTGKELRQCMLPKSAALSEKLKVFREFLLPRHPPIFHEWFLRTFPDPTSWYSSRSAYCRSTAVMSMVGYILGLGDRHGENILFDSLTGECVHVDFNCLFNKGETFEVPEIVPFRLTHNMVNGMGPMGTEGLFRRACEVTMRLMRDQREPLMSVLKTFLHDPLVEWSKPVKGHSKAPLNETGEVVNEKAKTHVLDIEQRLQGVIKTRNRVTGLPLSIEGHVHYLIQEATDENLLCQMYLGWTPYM

ATR, construct: Full length, human (from UniProt Q13535)
relative phosphorylation
Conditions | at +1 | at +2 | at +3 | at +4 | at -1 | at -2 | at -3 | at -4 | at -5
A fixed | 0.714 | 1.01 | 1.05 | 1.05 | 1.46 | 1.01 | 1.01 | 0.94 | 0.971
D fixed | 0.582 | 1.07 | 1.13 | 0.968 | 0.86 | 0.785 | 0.814 | 0.984 | 1.17
E fixed | 0.586 | 1.07 | 1.21 | 0.929 | 0.742 | 0.871 | 0.88 | 1.18 | 1.07
F fixed | 0.709 | 0.913 | 0.944 | 0.988 | 0.872 | 0.957 | 1.08 | 1.18 | 1.3
G fixed | 0.651 | 0.921 | 0.965 | 1.13 | 1.26 | 0.839 | 0.875 | 1.05 | 1.01
H fixed | 0.624 | 1.06 | 0.991 | 1.02 | 0.845 | 0.973 | 0.889 | 0.982 | 1.01
I fixed | 0.747 | 0.898 | 0.866 | 0.875 | 0.687 | 0.793 | 1.1 | 0.912 | 0.818
K fixed | 0.649 | 0.923 | 0.877 | 0.928 | 0.806 | 1.09 | 0.911 | 0.919 | 0.884
L fixed | 0.73 | 0.871 | 0.887 | 0.993 | 1.26 | 0.84 | 1.18 | 0.901 | 0.901
M fixed | 0.685 | 0.908 | 0.92 | 0.995 | 0.978 | 0.94 | 1.12 | 0.96 | 0.931
N fixed | 0.933 | 1.05 | 1 | 1.02 | 1.17 | 0.945 | 0.816 | 0.892 | 0.877
P fixed | 0.689 | 1.14 | 1.18 | 1.19 | 1.45 | 1.59 | 0.972 | 0.956 | 0.909
Q fixed | 5.91 | 1.23 | 1.09 | 0.994 | 1.2 | 1.03 | 0.859 | 0.926 | 0.871
R fixed | 0.83 | 1.09 | 0.972 | 0.97 | 0.855 | 1.67 | 1.62 | 0.982 | 1
V fixed | 0.665 | 0.967 | 0.988 | 0.849 | 0.725 | 0.768 | 0.884 | 0.867 | 0.802
W fixed | 0.618 | 0.926 | 0.934 | 1.11 | 0.842 | 0.916 | 1.08 | 1.26 | 1.23
Y fixed | 0.671 | 0.971 | 1 | 0.984 | 0.987 | 0.99 | 0.911 | 1.11 | 1.23
pThr fixed | 0.679 | 0.968 | 1.36 | 1.1 | 0.799 | 0.849 | 0.99 | 1.38 | 1.3
pTyr fixed | 0.62 | 1.01 | 1.03 | 1.44 | 0.904 | 1.14 | 1.83 | 2.14 | 1.62

BMPR1A, construct: aa187-end, human (from UniProt P36894)
relative phosphorylation
Conditions | at +1 | at +2 | at +3 | at +4 | at -1 | at -2 | at -3 | at -4 | at -5
A fixed | 0.574 | 0.952 | 0.911 | 0.854 | 0.648 | 0.721 | 0.791 | 0.912 | 0.982
D fixed | 2.03 | 1.24 | 1.79 | 1.3 | 1.72 | 1.97 | 2.32 | 2.47 | 1.88
E fixed | 6.79 | 1.52 | 1.55 | 1.31 | 1.95 | 7.73 | 2.92 | 1.81 | 1.65
F fixed | 0.398 | 0.622 | 0.89 | 0.889 | 0.797 | 0.384 | 0.65 | 0.792 | 0.807
G fixed | 0.58 | 1.89 | 0.941 | 1 | 0.483 | 0.579 | 0.948 | 0.958 | 0.93
H fixed | 0.431 | 1.25 | 0.889 | 1.06 | 0.983 | 0.483 | 0.826 | 0.987 | 1.02
I fixed | 0.677 | 0.554 | 1.01 | 1.01 | 0.809 | 0.432 | 0.662 | 0.781 | 0.83
K fixed | 0.335 | 0.803 | 0.498 | 0.738 | 0.587 | 0.351 | 0.564 | 0.741 | 0.86
L fixed | 0.417 | 0.613 | 0.926 | 0.797 | 1.17 | 0.453 | 0.649 | 0.701 | 0.802
M fixed | 0.57 | 0.721 | 0.85 | 0.922 | 1.67 | 0.462 | 0.859 | 0.808 | 0.791
N fixed | 0.668 | 0.776 | 0.793 | 0.946 | 1.01 | 0.693 | 1.24 | 1.08 | 1.22
P fixed | 0.265 | 1.31 | 0.936 | 0.964 | 0.466 | 0.401 | 0.74 | 0.775 | 0.699
Q fixed | 0.644 | 0.735 | 0.729 | 0.931 | 1.13 | 0.659 | 1.02 | 0.892 | 0.908
R fixed | 0.314 | 0.691 | 0.478 | 0.767 | 0.555 | 0.395 | 0.636 | 0.718 | 0.886
V fixed | 1.47 | 0.632 | 1.13 | 0.961 | 1.23 | 0.545 | 0.731 | 0.887 | 0.832
W fixed | 0.421 | 1.14 | 1.46 | 1.38 | 0.77 | 0.392 | 0.676 | 0.887 | 0.965
Y fixed | 0.417 | 1.55 | 1.21 | 1.18 | 1.02 | 0.349 | 0.755 | 0.791 | 0.928
pThr fixed | 5.36 | 1.98 | 1.01 | 1.31 | 1.08 | 1.66 | 2.19 | 1.53 | 1.46
pTyr fixed | 1.09 | 0.876 | 1.35 | 1.22 | 1.54 | 0.763 | 1.55 | 1.09 | 1.42
